Assay results as given in PMC4822050, “Hemi-methylated DNA opens a closed conformation of UHRF1 to facilitate its histone recognition” (Nature Communications, 2016).

T1: TTD (residues 134–285) of UHRF1 (Homo sapiens, UniProt Q96T88)
T1 construct: TTD (residues 134–285); GST (N, cleaved yes); made in house; host or cells: E. coli BL21 (DE3)
T1 sequence (Q96T88 134-285): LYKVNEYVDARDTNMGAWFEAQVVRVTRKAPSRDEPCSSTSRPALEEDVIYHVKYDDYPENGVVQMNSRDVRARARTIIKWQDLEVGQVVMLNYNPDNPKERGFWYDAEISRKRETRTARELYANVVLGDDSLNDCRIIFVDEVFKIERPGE


What was measured:
H3K9me3 peptide (1–17) = experiment: ITC, H3K9me3 peptide (1-17) titrated into UHRF1 proteins; assay type: binding; details: ITC KD ratio
Description: (§1) For competition ITC experiments: the indicated proteins were pre-incubated with competitive peptide, protein or hm-DNA (at 1:2 molar ratio if not specified) for 10 min followed by ITC measurements as described above. Proteins, DNA and peptides were prepared within ITC buffer containing 10 mM HEPES, pH 8.0, 100 mM NaCl. The data were fitted by software Origin 7.0. All ITC results were summarized in Supplementary Table 2 and raw data were shown in Supplementary Fig. 9.

FAM-12bp-HM-DNA = experiment: Fluorescence polarization, 12-bp FAM-hm-DNA; assay type: binding; details: for Kd: FP
Description: A 6-carboxy-fluorescein (FAM)-labelled primer, 5′-CCATGCGCTGAC-3′, was annealed to a primer 5′-GTCAGXGCATGG-3′ (X=5-methyldeoxycytosine). The hemi-methylated double-strand DNA was used in both electrophoretic mobility-shift assay and FP assays. […] The samples were subjected to a 10% polyacrylamide gel electrophoresis and run in 0.5 × Tris-borate-EDTA buffer at 100 V for 1 h at 4 °C. The results were visualized on Tanon-5200 Chemiluminescent Imaging System (Tanon Science & Technology Co., Ltd).
(§2) FP measurements were performed at 25 °C on Synergy 4 Microplate Reader (BioTek). The 16-bp and 20-bp FAM-labelled hm-DNA (lower strand: 5′-GTGTCAGXGCATGGCC-3′ and 5′-CCGTGTCAGXGCATGGCCAT-3′, respectively. X=5-methyldeoxycytosine) were used in the FP experiment to test the effect of DNA length on the protein/DNA interaction. All experiments were performed in triplicate. The curves were fitted by GraphPad Prism 5. For salt concentration-dependent FP experiments, the reaction buffer contains 50 mM or 150 mM NaCl, respectively.

[1] = test system: DAPI foci (pericentromeric heterochromatin) in NIH3T3 cells; experiment: Subcellular localization of GFP-tagged UHRF1 in NIH3T3 cells; assay type: cell-based; details: GFP-tagged protein transiently overexpressed in NIH3T3 cells, 36 h after transfection; at least 100 cells counted; repeated three times
Description: NIH3T3 cells were obtained from the Shanghai Institute of Biochemistry and Cell Biology. Wild type and mutants of UHRF1 were sub-cloned into pEGFP-C1 vector. Transient transfections of NIH3T3 cells were carried out using Lipofectamine 2000 (Invitrogen). The NIH3T3 cells were grown on glass coverslips and harvested in 36 h after transfection. The images were acquired and examined as previously described. Briefly, cells were fixed with 4% paraformaldehyde for 25 min, then washed with PBS three times. Coverslips were mounted with Antifade reagent containing DAPI (Molecular Probes) on slides and examined with a confocal microscopy.

[2] = molecular target: T1, TTD (residues 134–285) of UHRF1; experiment: ITC, TTD titrated into Spacer variants and other UHRF1 fragments; assay type: binding; details: TTD in syringe
Description: as §1

hm-DNA (12 bp) = experiment: ITC, hm-DNA titrated into UHRF1 domains; assay type: binding; details: 18 °C, 12-bp hm-DNA in syringe, named protein in cell, 10 mM HEPES pH 8.0, 100 mM NaCl
Description: as §1

RFTS^DNMT1 = experiment: ITC, RFTS of DNMT1 with SRA or SRA-Spacer; assay type: binding; details: 18 °C, RFTS^DNMT1 with named protein, 10 mM HEPES pH 8.0, 100 mM NaCl
Description: as §1

FAM-16bp-HM-DNA = experiment: Fluorescence polarization, 16-bp FAM-hm-DNA; assay type: binding; details: FP, DNA length series
Description: as §2

FAM-20bp-HM-DNA = experiment: Fluorescence polarization, 20-bp FAM-hm-DNA; assay type: binding; details: FP, DNA length series
Description: as §2

[3] = 25 °C, 20 min, 20 mM HEPES pH 7.5, 175 mM NaCl, 8% glycerol, 1 mM DTT, triplicate, Fig. 5b and Supplementary Table 4

fold higher binding affinity to H3K9me3 peptide than full-length UHRF1 (H3K9me3 peptide (1–17)) | factor of decrease in hm-DNA-binding affinity compared with full-length UHRF1 (FAM-12bp-HM-DNA; FP KD ratio) | Kd (FAM-12bp-HM-DNA; [3]) [nM] | N ([2]; ITC stoichiometry) | ΔH ([2]; ITC) [cal/mol] | ΔS ([2]; ITC) [cal/mol/deg] | Kd (hm-DNA (12 bp)) [nM] | Kd (RFTS^DNMT1) [nM] | Kd (FAM-12bp-HM-DNA; 12-bp hm-DNA, 50 mM NaCl) [nM] | Kd (FAM-12bp-HM-DNA; 12-bp hm-DNA, 150 mM NaCl) [nM] | Kd (FAM-12bp-HM-DNA; DNA length series, Supplementary Table 5, 12-bp hm-DNA) [nM] | Kd (FAM-12bp-HM-DNA; values as printed in Fig. 5c (Spacer truncation mapping)) [nM] | Kd (FAM-16bp-HM-DNA) [nM] | Kd (FAM-20bp-HM-DNA) [nM] | Molecule | percentage of cells showing co-localization with DAPI foci [1] [%]
four | 14 | 4940 ± 1090 |  |  |  |  |  |  |  |  |  |  |  | UHRF1∆627-674: spacer deletion mutant of UHRF1 (residues 627–674 deleted) (protein, left off: GST, end not stated, cleaved) MWIQVRTMDGRQTHTVDSLSRLTKVEELRRKIQELFHVEPGLQRLFYRGKQMEDGHTLFDYEVRLNDTIQLLVRQSLVLPHSTKERDSELSDTDSGCCLGQSESDKSSTHGEAAAETDSRPADEDMWDETELGLYKVNEYVDARDTNMGAWFEAQVVRVTRKAPSRDEPCSSTSRPALEEDVIYHVKYDDYPENGVVQMNSRDVRARARTIIKWQDLEVGQVVMLNYNPDNPKERGFWYDAEISRKRETRTARELYANVVLGDDSLNDCRIIFVDEVFKIERPGEGSPMVDNPMRRKSGPSCKHCKDDVNRLCRVCACHLCGGRQDPDKQLMCDECDMAFHIYCLDPPLSSVPSEDEWYCPECRNDASEVVLAGERLRESKKKAKMASATSSSQRDWGKGMACVGRTKECTIVPSNHYGPIPGIPVGTMWRFRVQVSESGVHRPHVAGIHGRSNDGAYSLVLAGGYEDDVDHGNFFTYTGSGGRDLSGNKRTAEQSCDQKLTNTNRALALNCFAPINDQEGAEAKDWRSGKPVRVVRNVKGGKNSKYAPAEGNRYDGIYKVVKYWPEKGKSGFLVWRYLLRRDDDEPGPWTKEGKDRIKKLGLTMQYPEGYLEALANREREKENSKSLTAQQSSLIREDKSNAKLWNEVLASLKDRPASGSPFQLFLSKVEETFQCICCQELVFRPITTVCQHNVCKDCLDRSFRAQVFSCPACRYDLGRSYAMQVNQPLQTVLNQLFPGYGNGR | 22.1
 |  | 490 | 0.788±0.0108 | -1.199E4±224.9 | -13.3 | 1750 | 7090 | 24 ± 3.7 | 580 ± 98 | 340 ± 90 | 490 | 390 ± 70 | 400 ± 70 | SRA–Spacer: human UHRF1 residues 414–674 (protein, left off: GST, end not stated, cleaved) PSNHYGPIPGIPVGTMWRFRVQVSESGVHRPHVAGIHGRSNDGAYSLVLAGGYEDDVDHGNFFTYTGSGGRDLSGNKRTAEQSCDQKLTNTNRALALNCFAPINDQEGAEAKDWRSGKPVRVVRNVKGGKNSKYAPAEGNRYDGIYKVVKYWPEKGKSGFLVWRYLLRRDDDEPGPWTKEGKDRIKKLGLTMQYPEGYLEALANREREKENSKREEEEQQEGGFASPRTGKGKWKRKSAGGGPSRAGSPRRTSKKTKVEPY | 
